Reference: article doi:10.1101/419721 (bioRxiv, 2018)
One block for each binder: values may come before it. No end group written: not given here.

Legend:
[1] = target: T1, PDZ domain of SYNJ2BP (MBP-PDZ) (human, UniProt P57105 13-100); test: ITC
T1 sequence: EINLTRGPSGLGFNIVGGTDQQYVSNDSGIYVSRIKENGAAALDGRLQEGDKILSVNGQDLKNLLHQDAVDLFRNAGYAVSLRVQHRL

[2] = target: T2, PDZ domain of ARHGEF12 (MBP-PDZ) (human, UniProt Q9NZN5 72-151); test: ITC
T2 sequence: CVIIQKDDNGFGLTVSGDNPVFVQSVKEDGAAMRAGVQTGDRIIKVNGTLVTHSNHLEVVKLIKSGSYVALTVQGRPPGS

binding result [1]: binds | binding result [2]: binds
B1: unphosphorylated RSK1 683-735 peptide (peptide)
peptide: QSQLSHQDLQLVKGAMAATYSALNSSKPTPQLKPIESSILAQRRVRKLPSTTL

binding result [1]: binds
B2: phosphorylated RSK1 683-735 peptide (peptide)
peptide: B1 peptide
modifications: also: phosphorylated, sites not given here
